Measurements: paper PMC6464389 (Circulation, 2019)

Target: recombinant GPIbα extracellular domain (UniProt P07359 17-531)
Assay: SPR

Kd: 900 nM
B1: recombinant wild-type protein disulfide isomerase (wtPDI) (enzyme)
chain: not shown
